# From patent US7193044B1, “Compounds and methods for regulating apoptosis, and methods of making and screening for compounds that regulate apoptosis” (Immunogen, Inc., priority 2000, dated 2007)
# “Also recorded” adds a separate entry of the source.
# B1: BAD S112A/S136A: mutant of shorter murine BAD, serines corresponding to Ser112 and Ser136 substituted with alanine (protein)
# chain: MFQIPEFEPSEQEDASATDRGLGPSLTEDQPGPYLAPGLLGSNIHQQGRAATNSHHGGAGAMETRSRHSAYPAGTEEDEGMEEELSPFRGRSRAAPPNLWAAQRYGRELRRMSDEFEGSFKGLPRPKSAGTATQMRQSAGWTRIIQSWWDRNLGKGGSTPSQ
# modifications: left off: small tags and cut ends
# notes: mutant of shorter murine BAD, serines corresponding to Ser112 and Ser136 substituted with alanine
# Legend:
# GST-Bcl-XL = GST-Bcl-XL (Homo sapiens, UniProt Q07817); test: GST-Bcl-XL binding (glutathione bead pull-down) of BAD; conditions: whole cell lysate of COS-7 cells, glutathione bead precipitation, anti-HA blot
# Chain of GST-Bcl-XL (Q07817 whole entry): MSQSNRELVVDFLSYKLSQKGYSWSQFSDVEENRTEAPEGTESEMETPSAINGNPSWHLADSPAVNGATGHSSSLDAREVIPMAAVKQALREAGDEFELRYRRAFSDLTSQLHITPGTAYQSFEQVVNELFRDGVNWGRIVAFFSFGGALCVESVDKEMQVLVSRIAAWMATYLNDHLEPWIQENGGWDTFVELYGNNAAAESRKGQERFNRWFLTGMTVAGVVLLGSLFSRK
# Experimental: In order to test whether the additional and novel phosphorylation site on BAD has functional significance, the effect on BAD binding to Bcl-XL was examined. Recombinant Bcl-XL tagged with the glutathione S-transferase (“GST”) moiety (“GST-Bcl-XL”) was incubated with WCL prepared from COS-7 cells expressing the double mutant HA-BAD S112A/S136A, and the HA-BAD S112A/S136A that bound to the GST-Bcl-XL was precipitated with GST beads. […] No HA-BAD S112A/S136A was precipitated with GST beads from the WCL that were not incubated with GST-Bcl-XL (FIG. 1, lane 4).
# The ability of full-length BAD and mutant BAD S155A to bind Bcl-XL was also determined (FIG. 3(c)). Full-length BAD (“WT”) and mutant BAD S155A (“S155A”) were produced by in vitro translation and labeled with ^35S-methionine therein. […] Proteins bound to the beads (“Bound”) (lower panel) and samples of the reactions collected prior to incubation with the beads (“Total”) (upper panel) were analyzed by SDS-PAGE followed by autoradiography.
# For Bcl-XL binding studies, GST-Bcl-XL (1 mg/ml final concentration) was added to cell lysates derived from BAD expressing cells, and incubated with rotation for two hours at 4° C. […] The beads were then washed with RIPA buffer, the proteins were separated by SDS-PAGE and associated BAD detected by probing the blot with anti-HA antibody.
# [1] = tested on: BAD phosphorylation in COS-7 cells; test: BAD phosphorylation in COS-7 cells (western blot band-shift); type: cell-based; conditions: anti-HA western blot, listed as HA-BAD S112A/S136A
# Excerpt: Mouse FL5.12 cells were then transfected with the expression vector encoding the shorter murine BAD of SEQ ID NO:3 or one of the three BAD mutants. Total mRNA was isolated from the transfected FL5.12 cells, and reverse transcribed into cDNA. The cDNA was then subcloned into the expression vector pcDNA3 so that the amino acid sequence of the BAD or mutant BAD, encoded by the subcloned cDNA, was in-frame and operably linked to an N-terminal hemagglutinin (“HA”) epitope encoded by the expression vector. The expression vectors encoding the HA-tagged shorter murine BAD and mutant BAD were expressed in COS-7 cells. Whole cell lysates (“WCL”) were then prepared from the COS-7 cells expressing the polypeptides. The phosphorylation of the shorter murine BAD of SEQ ID NO:3 and mutant BAD were detected by a western blot of the WCL, probed with an anti-HA antibody (“anti-HA antibody”). […] Of note, each of the BAD mutants resolved as a doublet on a 16% SDS-PAGE, even though in the amino acid sequence of each of the BAD mutants one or both of the serines corresponding to Ser112 and Ser136 were mutated, i.e., substituted with alanine. […]
# HeLa cells = test: Fluorescence-based beta-galactosidase assay of BAD-induced cell death in transfected HeLa cells; parameters: species or system human; conditions: SFM vs SFM+EGF, 12 hours
# Experimental: FIG. 12(B) is a graphic representation of the results of a β-galactosidase assay. HeLa cells were co-transfected with the β-galactosidase gene and either HA-BAD (“WT”), HA-BAD S155A (“S155A”), HA-BAD S112A/S136A (“S112A/S136A”) or HA-BAD S112A/S136A/S155A (“AAA”). Transfected cells were then cultured in serum-free medium (SFM) or SFM supplemented with EGF (SFM+EGF) for 12 hours. Cell lysates were prepared and BAD-induced cell death was measured by the loss of β-galactosidase activity in a fluorescence-based assay. Fluorescence was measured at 465 nm. Results shown are the average and standard deviation of triplicate transfections (this experiment was repeated two more times with similar results). Expression levels of HA-tagged BAD and BAD mutants in transfected cell lysates were detected by anti-HA western blot analysis: HA-BAD (“WT”), HA-BAD S155A (“A”), HA-BAD S112A/S136A (“AA”), and HA-BAD S112A/S136A/S155A (“AAA”).
# FIG. 12(C) is a graphic representation of the results of a β-galactosidase assay. HeLa cells were co-transfected with the β-galactosidase gene and either an empty vector (“CTL”), wild-type BAD (“WT”), the BAD S155A mutant (“S155A”) or the BAD S155D mutant (“S155D”). Cell lysates were prepared and BAD-induced cell death was measured by the loss of β-galactosidase activity in a fluorescence-based assay. Fluorescence was measured at 465 nm. Results shown are the average and standard deviation of triplicate transfections (this experiment was repeated two more times with similar results).
# HeLa cells were co-transfected with the β-galactosidase gene and either wild-type BAD, BAD S155A, BAD S112A/S136A or BAD S112A/S136A/S155A. […] Cell lysates were prepared and BAD-induced cell death was measured by the loss of β-galactosidase activity in a fluorescence-based assay. […]
# To measure β-gal activity, HeLa cells were plated in 12-well plates at 5×10^4 cells/well one day prior to transfection. […] Beta-gal activity was measured in extracts using a fluorogenic substrate (MUG, BIO-RAD FluorAce™ β-gal Reporter Assay, #170–3150). […]
molecule,measurement,setting,value
B1,binding to GST-Bcl-XL,GST-Bcl-XL,only the lower molecular weight band of the doublet was detected
same,phosphorylation of expressed BAD mutant (lambda phosphatase-sensitive higher molecular weight band),[1],phosphatase treatment completely eliminated the higher molecular weight band of the doublet; also recorded: do not eliminate the phosphorylation of BAD
same,effect of EGF stimulation on pro-apoptotic activity of the BAD mutant,HeLa cells,also suppressed by EGF stimulation
